Article PMC7215194 (Heliyon, 2020)

Biological target: dansyl-calmodulin (recombinant rat CaM, dansylated) (rat, UniProt P0DP29 1-149, dansylated with dansyl chloride)
Assay: other fluorescence titration

B1: wild-type peptide corresponding to the CaM-binding domain of human Grb7 (residues 243-256), non-myristoylated (peptide)
peptide: RKLWKRFFCFLRRS
binding result: binds
